# Changes are numbered by the printed parent chain.
# T1: human GIP receptor (human) (UniProt P48546)
# T1 sequence (looked up): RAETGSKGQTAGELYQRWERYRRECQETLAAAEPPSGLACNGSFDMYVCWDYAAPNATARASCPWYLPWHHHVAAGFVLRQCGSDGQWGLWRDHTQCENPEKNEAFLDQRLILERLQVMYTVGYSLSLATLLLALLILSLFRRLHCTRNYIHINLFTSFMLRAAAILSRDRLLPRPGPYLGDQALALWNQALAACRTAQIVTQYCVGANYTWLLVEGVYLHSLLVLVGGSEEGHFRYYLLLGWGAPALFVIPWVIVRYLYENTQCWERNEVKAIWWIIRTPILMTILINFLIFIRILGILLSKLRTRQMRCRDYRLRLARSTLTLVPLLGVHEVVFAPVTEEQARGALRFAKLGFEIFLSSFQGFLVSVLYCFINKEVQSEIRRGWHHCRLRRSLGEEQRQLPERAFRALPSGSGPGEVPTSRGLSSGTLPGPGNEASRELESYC
# B1: Example 1129 (peptide)
# chain: YXQGTFTSDXSQXLDXKAQXQFIQXLIEXGPSSGEPPPSGGGE
# modifications: non-natural residues; lysine acylated with C18 diacid; C-terminal amide; synthetic construct; SITE 2: note = 2-Aminoisobutyric Acid; SITE 10: note = 3-(4-Pyridyl)-L-alanine; SITE 13: note = alpha-methyl-leucine; SITE 16: note = L-ornithine; SITE 17: note = Lysine is chemically modified through conjugation of the epsilon-amino group of the Lysine side chain with D-Glutami
# B2: Example 1137 (peptide)
# chain: B1 chain with S11X, E35A
# modifications: not fully specified; non-natural residues; γ-Glu-C18 diacid acyl; C-terminal amide; synthetic construct; SITE 2: note = 2-Aminoisobutyric Acid; SITE 10: note = 3-(4-Pyridyl)-L-alanine; SITE 11: note = alpha-methyl-L-serine; SITE 13: note = alpha-methyl-leucine; SITE 16: note = L-ornithine; SITE 17: note = Lysine is chemically modified through conjugation of the epsilon-amino group
# B3: Example 1133 (peptide)
# chain: B1 chain with S11X, E28A, X29G
# modifications: not fully specified; non-natural residues; C18 diacid-γGlu-e on Lys; C-terminal amide; synthetic construct; SITE 2: note = 2-Aminoisobutyric Acid; SITE 10: note = 3-(4-Pyridyl)-L-alanine; SITE 11: note = alpha-methyl-L-serine; SITE 13: note = alpha-methyl-leucine; SITE 16: note = L-ornithine; SITE 17: note = Lysine is chemically modified through conjugation of the epsilon-amino group
# B4: Example 1101 (peptide)
# chain: YXQGTFTSDXSQXLDXKAQXAFIEYLIAXGPSSGEPPPSGSEE
# modifications: non-natural residues, γGlu-C18 diacid lysine acylation, C-terminal amide; synthetic construct; SITE 2: note = 2-Aminoisobutyric Acid; SITE 10: note = 3-(4-Pyridyl)-L-alanine; SITE 13: note = alpha-methyl-leucine; SITE 16: note = L-ornithine; SITE 17: note = Lysine is chemically modified through conjugation of the epsilon-amino group of the Lysine side chain with D-Glutami
# B5: Example 1128 (peptide)
# chain: B1 chain with E28A
# modifications: Aib, 4Pal, αMeL, Orn, Me4Pal, αMeY; acylated lysine; amide; synthetic construct; SITE 2: note = 2-Aminoisobutyric Acid; SITE 10: note = 3-(4-Pyridyl)-L-alanine; SITE 13: note = alpha-methyl-leucine; SITE 16: note = L-ornithine; SITE 17: note = Lysine is chemically modified through conjugation of the epsilon-amino group of the Lysine side chain with D-Glutami
# B6: Example 1130 (peptide)
# chain: B1 chain with Q21A, E28A
# modifications: Lys acylated γGlu-C18 diacid; non-natural residues; C-amide; synthetic construct; SITE 2: note = 2-Aminoisobutyric Acid; SITE 10: note = 3-(4-Pyridyl)-L-alanine; SITE 13: note = alpha-methyl-leucine; SITE 16: note = L-ornithine; SITE 17: note = Lysine is chemically modified through conjugation of the epsilon-amino group of the Lysine side chain with D-Glutami
# B7: Example 1104 (peptide)
# chain: B4 chain with A21Q, Y25X, A28E
# modifications: not fully specified; non-natural residues; Lys acylated C18 diacid via γGlu; C-term amide; synthetic construct; SITE 2: note = 2-Aminoisobutyric Acid; SITE 10: note = 3-(4-Pyridyl)-L-alanine; SITE 13: note = alpha-methyl-leucine; SITE 16: note = L-ornithine; SITE 17: note = Lysine is chemically modified through conjugation of the epsilon-amino group of the Lysine side chain with D-Glutami
# B8: Example 1124 (peptide)
# chain: B4 chain with X16K, Y25X, A28E, S41E
# modifications: non-natural residues (Aib, 4Pal, Me4Pal, αMeL); lipidated Lys; C-amide; synthetic construct; SITE 2: note = 2-Aminoisobutyric Acid; SITE 10: note = 3-(4-Pyridyl)-L-alanine; SITE 13: note = alpha-methyl-leucine; SITE 17: note = Lysine is chemically modified through conjugation of the epsilon-amino group of the Lysine side chain with (gamma-Glu)2-CO-(CH2)16-CO2H; SITE 20:
# B9: Example 1103 (peptide)
# chain: B4 chain with Y25X, A28E
# modifications: not fully specified; Aib, 4Pal, Orn, Me4Pal, αMeY; lipidated Lys; C-terminal amide; synthetic construct; SITE 2: note = 2-Aminoisobutyric Acid; SITE 10: note = 3-(4-Pyridyl)-L-alanine; SITE 13: note = alpha-methyl-leucine; SITE 16: note = L-ornithine; SITE 17: note = Lysine is chemically modified through conjugation of the epsilon-amino group of the Lysine side chain with D-Glutami
# B10: Example 1131 (peptide)
# chain: B1 chain with Q21A
# modifications: not fully specified; non-natural residues, C18 diacid acylation, C-terminal amide; synthetic construct; SITE 2: note = 2-Aminoisobutyric Acid; SITE 10: note = 3-(4-Pyridyl)-L-alanine; SITE 13: note = alpha-methyl-leucine; SITE 16: note = L-ornithine; SITE 17: note = Lysine is chemically modified through conjugation of the epsilon-amino group of the Lysine side chain with D-Glutami
# B11: Example 1106 (peptide)
# chain: B4 chain with A21Q, Y25X
# modifications: not fully specified; Aib, 4Pal, Orn, Me4Pal, αMeY; lipidated Lys; C-terminal amide; synthetic construct; SITE 2: note = 2-Aminoisobutyric Acid; SITE 10: note = 3-(4-Pyridyl)-L-alanine; SITE 13: note = alpha-methyl-leucine; SITE 16: note = L-ornithine; SITE 17: note = Lysine is chemically modified through conjugation of the epsilon-amino group of the Lysine side chain with D-Glutami
# B12: Example 1102 (peptide)
# chain: B4 chain with A28Q
# modifications: not fully specified; non-natural residues, γGlu-C18 diacid acyl on K, C-terminal amide; synthetic construct; SITE 2: note = 2-Aminoisobutyric Acid; SITE 10: note = 3-(4-Pyridyl)-L-alanine; SITE 13: note = alpha-methyl-leucine; SITE 16: note = L-ornithine; SITE 17: note = Lysine is chemically modified through conjugation of the epsilon-amino group of the Lysine side chain with D-Glutami
# B13: Example 1125 (peptide)
# chain: B4 chain with X16K, Y25X, A28E
# modifications: Aib, 4Pal, Me4Pal, αMeL; lipidated Lys; C-terminal amide; synthetic construct; SITE 2: note = 2-Aminoisobutyric Acid; SITE 10: note = 3-(4-Pyridyl)-L-alanine; SITE 13: note = alpha-methyl-leucine; SITE 17: note = Lysine is chemically modified through conjugation of the epsilon-amino group of the Lysine side chain with (gamma-Glu)2-CO-(CH2)16-CO2H; SITE 20:
# B14: Example 1105 (peptide)
# chain: B4 chain with Y25X
# modifications: not fully specified; non-natural residues; Lys acylated γGlu-C18 diacid; C-terminal amide; synthetic construct; SITE 2: note = 2-Aminoisobutyric Acid; SITE 10: note = 3-(4-Pyridyl)-L-alanine; SITE 13: note = alpha-methyl-leucine; SITE 16: note = L-ornithine; SITE 17: note = Lysine is chemically modified through conjugation of the epsilon-amino group of the Lysine side chain with D-Glutami
# Biological target: hGLP-1R (Homo sapiens, UniProt P43220)
# Assay: cell-based or functional assay
# hGLP-1R, sequence (P43220 24-463): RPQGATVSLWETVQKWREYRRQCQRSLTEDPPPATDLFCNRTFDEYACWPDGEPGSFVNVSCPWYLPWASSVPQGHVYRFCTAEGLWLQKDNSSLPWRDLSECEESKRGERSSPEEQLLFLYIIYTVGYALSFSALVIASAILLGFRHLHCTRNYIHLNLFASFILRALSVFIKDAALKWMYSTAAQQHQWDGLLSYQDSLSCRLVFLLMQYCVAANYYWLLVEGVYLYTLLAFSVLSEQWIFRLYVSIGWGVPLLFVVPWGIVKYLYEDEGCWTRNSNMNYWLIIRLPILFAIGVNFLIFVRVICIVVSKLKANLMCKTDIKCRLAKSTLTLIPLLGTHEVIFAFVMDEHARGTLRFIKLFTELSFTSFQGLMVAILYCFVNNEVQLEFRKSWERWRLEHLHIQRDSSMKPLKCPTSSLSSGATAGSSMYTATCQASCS
Binder,Relative cAMP EC50 [nM],cAMP Rel EC50 (1% HSA) [nM]
B1,0.501,56.6
B2,0.582,36.2
B3,0.768,47.8
B4,1.75,246
B5,0.486,52.8
B6,0.641,44.5
B7,1.7,272
B8,10.1,304
B9,1.06,183
B10,0.483,63.7
B11,0.87,119
B12,2.18,295
B13,8.26,243
B14,0.875,92.5

# Biological target: T1, human GIP receptor (human)
# Assay: cell-based or functional assay
Binder,Relative cAMP EC50 [nM],cAMP Rel EC50 (1% HSA) [nM]
B1,0.048,4.16
B2,0.0334,2.05
B3,0.0719,4.24
B4,0.0592,6.31
B5,0.0378,3.18
B6,0.0441,3.73
B7,0.09,13.9
B8,0.187,12
B9,0.0723,19.5
B10,0.0472,5.47
B11,0.0312,4.23
B12,0.0418,5.12
B13,0.173,3.95
B14,0.0427,5.59

# Biological target: human glucagon receptor (human) (UniProt P47871)
# Assay: cell-based or functional assay
# human glucagon receptor (human), sequence (P47871 26-477): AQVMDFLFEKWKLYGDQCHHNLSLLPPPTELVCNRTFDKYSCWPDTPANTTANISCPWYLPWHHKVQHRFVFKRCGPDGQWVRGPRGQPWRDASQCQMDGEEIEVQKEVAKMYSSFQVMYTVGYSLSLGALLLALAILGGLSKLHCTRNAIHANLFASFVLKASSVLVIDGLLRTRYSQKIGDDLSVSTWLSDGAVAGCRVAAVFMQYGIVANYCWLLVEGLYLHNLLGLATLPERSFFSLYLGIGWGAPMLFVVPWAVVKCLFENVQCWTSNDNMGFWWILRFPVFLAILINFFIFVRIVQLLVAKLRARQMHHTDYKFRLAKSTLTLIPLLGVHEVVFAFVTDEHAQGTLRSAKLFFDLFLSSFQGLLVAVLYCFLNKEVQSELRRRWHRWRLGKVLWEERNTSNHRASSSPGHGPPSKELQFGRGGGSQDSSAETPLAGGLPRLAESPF
Binder,Relative cAMP EC50 [nM],cAMP Rel EC50 (1% HSA) [nM]
B1,6.11,796
B2,14.2,663
B3,2.95,216
B4,4.72,827
B5,9.88,869
B6,13.3,1240
B7,11.1,1470
B8,6.97,400
B9,11.1,1350
B10,8.42,1140
B11,7.71,1030
B12,4.37,516
B13,5.83,264
B14,10.7,1260
